Results reported in paper PMC4685008.
Each block holds one substance with its values, some of them ahead of it.

How the values were obtained:
[1] = target: mGluR5 (endogenous) (UniProt Q3UVX5); test: co-IP with myc antibody, mGluR5 blot
[2] = target: mGluR5 (endogenous) (UniProt Q3UVX5); test: co-IP of myc-Homer; details: reference: H2WT replacement; sites S117,S216

binding against the reference ([1]; reference: H1mycWT, sites S117): stronger
Substance: Homer1 (H1, long form) (from UniProt Q9Z2Y3) H1mycS117A

binding against the reference [2]: stronger
Substance: Homer2 (H2) (from UniProt Q9QWW1) H2S117/216AA replacement

binding against the reference ([1]; reference: H2mycWT, sites S117,S216): stronger
Substance: Homer2 (H2) (from UniProt Q9QWW1) H2mycS117/216AA
